The values below come from article doi:10.1101/2020.09.22.307744 (bioRxiv, 2020).

Holding throughout (assay): MST
The target in data set [1] is Luminal domain of human IRE1α (inositol-requiring enzyme 1α), His-tagged (human) (UniProt O75460).
Data set [2] addresses Luminal domain of human PERK (PKR-like endoplasmic reticulum kinase), His-tagged (human) (UniProt Q9NZJ5).
Data set [3] addresses Luminal domain of human ATF6 (activating transcription factor 6), His-tagged (human) (UniProt P18850).
Data set [4] deals with Human recombinant GRP78 (BiP, binding immunoglobulin protein) (human, UniProt P11021 19-654).
Chain of Human recombinant GRP78 (BiP, binding immunoglobulin protein) (P11021 19-654): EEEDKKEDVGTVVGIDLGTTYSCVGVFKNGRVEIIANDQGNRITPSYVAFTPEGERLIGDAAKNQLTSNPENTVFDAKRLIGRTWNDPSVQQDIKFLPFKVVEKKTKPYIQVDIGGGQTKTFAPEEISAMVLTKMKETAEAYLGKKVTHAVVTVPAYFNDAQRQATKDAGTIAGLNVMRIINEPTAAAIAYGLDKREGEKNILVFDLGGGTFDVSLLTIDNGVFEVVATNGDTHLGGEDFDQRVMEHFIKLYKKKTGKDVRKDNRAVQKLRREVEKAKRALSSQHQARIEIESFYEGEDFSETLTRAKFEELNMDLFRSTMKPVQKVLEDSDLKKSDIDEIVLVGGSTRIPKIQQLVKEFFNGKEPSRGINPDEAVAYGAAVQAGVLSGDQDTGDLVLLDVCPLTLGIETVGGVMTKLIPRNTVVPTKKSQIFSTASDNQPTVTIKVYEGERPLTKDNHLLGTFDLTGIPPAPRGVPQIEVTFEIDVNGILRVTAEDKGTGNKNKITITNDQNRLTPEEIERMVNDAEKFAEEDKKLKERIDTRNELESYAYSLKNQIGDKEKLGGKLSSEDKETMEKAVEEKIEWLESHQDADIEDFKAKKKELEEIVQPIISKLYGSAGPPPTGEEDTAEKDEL
Data set [5] deals with the molecule itself.
Data set [6] concerns the molecule itself. This is another data set of the same source.
Data set [7] concerns the molecule itself. The source holds these as a separate data set.

Where two headings read alike, the source gives them in different places.

As to “MANF K128A C130S, recombinant human mutant protein (from UniProt P55145 25-182) (natural protein)”, the Kd in data set [1] is 55 nM.
On to “Mesencephalic astrocyte-derived neurotrophic factor (MANF), recombinant human (from UniProt P55145 25-182) (natural protein)”, for which the Kd in data set [2] stood at 384 nM; in data set [3] it was 347 nM; in data set [1] it was 94.7 nM.
As for “C-terminal domain of human MANF (C-MANF), chemically synthesized (domain or fragment)”, the Kd is 7.6 nM in data set [2], 9.8 nM in data set [3] and 9.5 nM in data set [1].
On to “C-terminal domain of human MANF (C-MANF), E.coli produced (domain or fragment)”, for which the Kd in data set [2] turned out to be 1400 nM; in data set [3] it was 1300 nM; in data set [1], 241 nM.

B1: Luminal domain of human ATF6 (activating transcription factor 6), His-tagged (domain or fragment, UniProt P18850 399-670, looked up)
chain: EQDSRRMNPSVSPANQRRHLLGFSAKEAQDTSDGIIQKNSYRYDHSVSNDKALMVLTEEPLLYIPPPPCQPLINTTESLRLNHELRGWVHRHEVERTKSRRMTNNQQKTRILQGALEQGSNSQLMAVQYTETTSSISRNSGSELQVYYASPRSYQDFFEAIRRRGDTFYVVSFRRDHLLLPATTHNKTTRPKMSIVLPAININENVINGQDYEVMMQIDCQVMDTRILHIKSSSVPPYLRDQQRNQTNTFFGSPPAATEATHVVSTIPESLQ
modifications: glycosylated (PNGase F assay); Monolith His-Tag Labeling Kit RED-tris-NTA dye on the His-tag
B1: the Kd in data set [4] was found to be 21 nM.

B2: Luminal domain of human IRE1α (inositol-requiring enzyme 1α), His-tagged (domain or fragment, UniProt O75460 19-443, looked up)
chain: IFGSTSTVTLPETLLFVSTLDGSLHAVSKRTGSIKWTLKEDPVLQVPTHVEEPAFLPDPNDGSLYTLGSKNNEGLTKLPFTIPELVQASPCRSSDGILYMGKKQDIWYVIDLLTGEKQQTLSSAFADSLCPSTSLLYLGRTEYTITMYDTKTRELRWNATYFDYAASLPEDDVDYKMSHFVSNGDGLVVTVDSESGDVLWIQNYASPVVAFYVWQREGLRKVMHINVAVETLRYLTFMSGEVGRITKWKYPFPKETEAKSKLTPTLYVGKYSTSLYASPSMVHEGVAVVPRGSTLPLLEGPQTDGVTIGDKGECVITPSTDVKFDPGLKSKNKLNYLRNYWLLIGHHETPLSASTKMLERFPNNLPKHRENVIPADSEKKSFEEVINLVDQTSENAPTTVSRDVEEKPAHAPARPEAPVDSMLKD
modifications: labelled copy: Monolith His-Tag Labeling Kit RED-tris-NTA dye on the His-tag (legends also say Alexa647-labeled through His-tag)
Consider B2, for which the Kd in data set [5] is 40 nM; in data set [6], 7.3 nM; in data set [4], 119 nM; in data set [7] it was 2.7 nM.

B3: Luminal domain of human PERK (PKR-like endoplasmic reticulum kinase), His-tagged (domain or fragment, UniProt Q9NZJ5 30-514, looked up)
chain: AGRARGLPAPTAEAAFGLGAAAAPTSATRVPAAGAVAAAEVTVEDAEALPAAAGEQEPRGPEPDDETELRPRGRSLVIISTLDGRIAALDPENHGKKQWDLDVGSGSLVSSSLSKPEVFGNKMIIPSLDGALFQWDQDRESMETVPFTVESLLESSYKFGDDVVLVGGKSLTTYGLSAYSGKVRYICSALGCRQWDSDEMEQEEDILLLQRTQKTVRAVGPRSGNEKWNFSVGHFELRYIPDMETRAGFIESTFKPNENTEESKIISDVEEQEAAIMDIVIKVSVADWKVMAFSKKGGHLEWEYQFCTPIASAWLLKDGKVIPISLFDDTSYTSNDDVLEDEEDIVEAARGATENSVYLGMYRGQLYLQSSVRISEKFPSSPKALESVTNENAIIPLPTIKWKPLIHSPSRTPVLVGSDEFDKCLSNDKFSHEEYSNGALSILQYPYDNGYYLPYYKRERNKRSTQITVRFLDNPHYNKNIRKKD
modifications: Monolith His-Tag Labeling Kit RED-tris-NTA dye on the His-tag
Take B3: the Kd in data set [4] came out at 14.1 nM.

As usually defined, the Kd is the constant that tells how readily two partners part at equilibrium.
